In the DeepSol protein solubility set:

test: soluble on expression in E. coli; label from the status in PepcDB or PDB records

Sequence	soluble on expression in E. coli
MAGETDLQKILRESNDQFTAQMFSEVVKANPGQNVVLSAFSVLPPLGQLALASVGESHDELLRALALPNDNVTKDVFADLNRGVRAVKGVDLKMASKIYVAKGLELNDDFAAVSRDVFGSEVQNVDFVKSVEAAGAINKWVEDQTNNRIKNLVDPDALDETTRSVLVNAIYFKGSWKDKFVKERTMDRDFHVSKDKTIKVPTMIGKKDVRYADVPELDAKMIEMSYEGDQASMIIILPNQVDGITALEQKLKDPKALSRAEERLYNTEVEITLPKFKIETTTDLKEVLSNMNIKKLFTPGAARLENLLKTKESLTVDAAIQKAFIEVNEEGAEAAAANAFGIVPKSLILYPEVHIDRPFYFELKIDGIPMFNGKVIEP	soluble
MGSDKIHHHHHHMYLKELSMMPGVSGDEGKVRDFIKSKIEGLVDNLYTDVLGNLIALKRGRDSSKKLLVSAHMDEVGFVVSKIEKDGKVSFLPVGGVDPRILPGKVVQVKNLKGVIGYRPIHLQRDEENTPPRFENLRIDFGFSSADEAKKYVSIGDYVSFVSDYIEKNGRAVGKAFDDRAGCSVLIDVLESGVSPAYDTYFVFTVQEETGLRGSAVVVEQLKPTCAIVVETTTAGDNPELEERKWATHLGDGPAITFYHRGYVIPKEIFQTIVDTAKNNDIPFQMKRRTAGGTDAGRYARTAYGVPAGVISTPARYIHSPNSIIDLNDYENTKKLIKVLVEEGKIVEVVS	not soluble
MPAIEVIRSAKRTKTVQARIVDGQIQVRIPARMSKAEEEKAVGEIVAKLKRRTQSAVSSDADLIERAHKLNKTVLEGRARVESIRWVSNQKGRWGSCTVATAEIRISDRLKHVPDYVLDAVLVHELTHTFIAGHSAEFWEWADKTPLAERAKGYLEAYQRWGLEHHHHHH	soluble
MGSDKIHHHHHHMPEHDVRLQQLTVWLDEQLNDLFRDNAWGEVPAGSLTAASSDASFRRYFRWQGAGHSFVIMDAPPPQENCRPFVAIDHLLASADVHVPLIHAQDLERGFLLLGDLGTQTYLDIINADNADGLFADAIDALLKFQRLPMDAPLPSYDDALLRREVELFPEWYVGRELGLTFTDAQKATWQRVSQLLIDSALAQPKVLVHRDYMPRNLMQSTPNPGVLDFQDAVYGPVTYDITCLFKDAFVSWPQARVEGWLGDYWQQAQAAGIPVHAEFEAFHRASDLMGVQRHLKVIGIFARICHRDGKPRYLGDVPRFFAYINEVIGRRPELAELGELIAELQAGARA	not soluble
MGSDKIHHHHHHMEVDNKRRHSEDELKQEAVKKIKSQEPNYAYLETVVREKLDFDSEKICCITLSPLNVYCCLVCGHYYQGRHEKSPAFIHSIDENHHVFLNLTSLKFYMLPQNVQILHDGEVQLLNSIKFAAYPTYCPKDLEDFPRQCFDLSNRTYLNGFIGFTNAATYDYAHSVLLLISHMVPVRDHFLLNHFDNQGEFIKRLSICVKKIWSPKLFKHHLSVDDFVSYLKVREGLNLNPIDPRLFLLWLFNKICSSSNDLKSILNHSCKGKVKIAKVENKPEASESVTGKVIVKPFWVLTLDLPEFSPFEDGNSVDDLPQINITKLLTKFTKSRSSSTSTVFELTRLPQFLIFHFNRFDRNSDHPVKNRNQTLVEFSSELEILHVKYRLKANVVHVVIKQPSTDGNAFNGDEKSHWITQLYDNKSEKWIEIDGINTTEREAELLFLKETFIQVWEKQE	not soluble
MGSDKIHHHHHHMLISVVLPAYNVQDTIGESIDSILSQTFTDFELIIINDGSQDNTEEVIHAYSDKRIRYYRNEKNEGLIYTLNRGLDLAQGKYIARMDADDVSLPTRFEKQVKVMEESPNIVVCGTQIILFGVDTAKRFTLFLPEESEDLKNLLFIQTCFAHPTVMVRRQVLIDNEVRYDADYPHAEDYKMWIDLSLLGEFYNIQEPLLRYRLSDGQVSHKFSDVQKRTASACRRFLISARFKDEKLDRQIENSIDISTICYIKKKEYPRELLEVLYSSLRKYNFKCLCYLFVSGDIFRFEIVVALALLKRFIIKKDRLL	not soluble
MKNTQFALFMVLNGRATEALTFYQEAFAGDILFKITNQEFKERLNPSLTIPAGEEHWLSHSILQMDTFQLQLADNPLFAGMNTTPTEQLTLSLTVNSRHSAKTIFEKLTCHPESCIIQEPIENEFATFYAIVKDPFGLVTQITHEKQADPTKKGS	not soluble
MGSDKIHHHHHHMKKLENKKSSSIKLETVRRKTINLSETEFIKIDFLTHWETLPIVLKPNIDYLDLADWIESSQNFIETKLLKYGAILFRGFNVDTATTFERVCLALCSDLFNENGEHPRKSVSGKVYTPVSYPADKKLLWHNENSFNYSWPRKILFGCLQPAQQGGETPIVDSRIVFQLIDPKIRERFIDKKVMYIRNYGDRLGLNWETVFQTSDRLEVEAACTKAAIDFEWKTGNRLRTIAVRPAVVKHPQTKEMSWFNQAQHWHPACLDSQTRESLLSMFKQEDLPRNCYYGDGSLIEDSVLEEICGVYQQLEVSFPWKRGDLLLLDNLLTAHSRNSYMGERQLLVAMGEMANFEDV	not soluble
MKFLSFIFLVSLCAVTSQINAQAPELPLDKIKLPPGFSISVWANVPDARTMTLGDKGTVFVGSKSAGNVYAITENAGKRQIRIIASKLKMPNGVAFHDGALYVSSVNRILRFDNIENTLDQPLPPRIITADYPKETYHGWRFIAFGPDGWLYVPVGSSCNVCETDLEHYALISRIRPDGSNYEVFAKGVRNTEGFDWHPVTKALWFTDISREWMGDNLPPDELNHASNQGLDFGFPYCHGKEVSDPKLGAKRDCNKFIPPAVELDPHVAPMGMRFYTGTMFPAEYHNGIFIAEHGSWNRSTKIGYRLEWVQLEVNEVARKEIFAEGWLQENEAWGRPVDVLVMPDGALLVSDDMAGVVYRISYDQP	not soluble
MSLEDYILKVEELNYNYSDGTHALKGINMNIKRGEVTAILGGNGVGKSTLFQNFNGILKPSSGRILFDNKPIDYSRKGIMKLRESIGIVFQDPDNQLFSASVYQDVSFGAVNMKLPEDEIRKRVDNALKRTGIEHLKDKPTHCLSFGQKKRVAIAGVLVMEPKVLILDEPTAGLDPMGVSEIMKLLVEMQKELGITIIIATHDIDIVPLYCDNVFVMKEGRVILQGNPKEVFAEKEVIRKVNLRLPRIGHLMEILKEKDGFVFDELDLTIGQARKTINSWKNKIFNEGHHHHHH	soluble
MVGKRNLPVISRNFDLSPGVLRFSASRLRLKKGEKKPKFTKDTSAKLPKLQRNGTKFALGHSKTVTLRKTLTPGTVLIVLAGRHKGKRVVFLKQLPQSGLLLVTGPHKINGFPLRRIGQAFVIATSLKVNVSGVKIPEHINDEYFKRKSTAQKTGKNIFASGKTEYTVSEQRKKDIKTVDAPILAAIKKHPEHKFLFGYLGTRFSLGKNQYPHKMQF	not soluble
MQPEFWNDKRPAGVPDSLDFAAYRSVVEVFERSCKKFADRPAFSNLGVTLSYAELDRLSAAFAAYLQKQTDLQPGDRIAVQMPNVLQYPIAVFGALRAGLVVVNTNPLYTAREMRHQFKDAGVRALVYLNVFGKLVEEVLPDTRIEYLIEARMGDLLPALKGWLVNSVVKSVKKMVPDYRLPQALPFRQALKQGQGHALQPVRVGLEDVAVLQYTGGTTGVSKGAMLTHGNLVANMLQVHAQLSQLGKDGLPLMKEAQEVMIAPLPLYHIYAFTANCMCMMVSGNHNVLITNPRDIPGFVKELKKWRFSALLGLNTLFVALMEHPGFKDVDFSNLKLTNSGGTALVSATAERWKGVTGCTVVEGYGLTECSPVVTTNPYGEQARLGTVGIPVVGTALKVIDEQGNELPVGERGELCVKGPQVMKGYWQRPEATEEILDAEGWLKTGDIAVIDEDGFVRIVDRKKDLILVSGFNVYPNEIEDVVMAHPKVASCAAVGIPDEKSGEAVKLFVVARDPSLSVEELKAYCKENLTGYKIPRQIVLKDALPMTPVGKILR	not soluble
MGRLSGKTILVTGAASGIGRAALDLFAREGASLVAVDREERLLAEAVAALEAEAIAVVADVSDPKAVEAVFAEALEEFGRLHGVAHFAGVAHSALSWNLPLEAWEKVLRVNLTGSFLVARKAGEVLEEGGSLVLTGSVAGLGAFGLAHYAAGKLGVVGLARTLALELARKGVRVNVLLPGLIQTPMTAGLPPWAWEQEVGASPLGRAGRPEEVAQAALFLLSEESAYITGQALYVDGGRSIVGPPGLPPGFGPKGGERHAHVL	soluble
MPAKSSSRTSATSSRRTILRLKVIPWERIISPFPSERGGSMSSLGIDIGGANLKVASKDGWEIIYFPMWREAERLEGKLREIAEKYSTAKAGVVMTAELADFFKSRAEGVEFIAKACKKAFEDVRFLDVEGNLKSDIDNPENFAASNWVASCRFLLEEAYRNFLFVDMGSTTTDIIPVTSKIEAAKTDFERLKRGELIYFGVLRTPVFYVLKEFEGAPLCPEFFAITADVFVTTGDIKEEDYSCDTPDGKGRSREECMRRLARTVCSDLEELGEEKVKELALEAKWAMIDRLSEVIEHKSKIYGLKTVFACGIGEFLIAEACEEAGAECRLISELYGDYSKLFPAYAMLKLVEQHLEHHHHHH	not soluble
MSIVTVQLGQCGNQIGFEVFDALFRDSHCSQGLCSKRDNEAYQASCRERFFREEENGVPVARAVLVDMEPKVINQTLSKAAQSGRWNYGQHTSFCQKQGSGNNWAYGYSVHGPKHEESIMNLIQTEVEKCDSLSGFFIIMSMAGGTGSGLGAFVTQKLQDQYSSSLKMNQIIWPYGTGEVIVQNYNSILTLSHLYRSSDALLIHENDAVHKICAKRMNIKQISFRDLNQVLAHQLGSVFQPTYSEDSSFHYRRNPLGDLMEHLVPHPEFKMLGVRNIPQMSAASLAYSAFTWAGLLKHLRQMLISSAKMEEGINWQVRPPLTGLPPIGKASAHKEHHFNTSLANLVVLRGREVHSADVEGFKDPALYTSWLEPVDAFSVWKTQRAFDKYEKSAALVSNSQLLVKPLDMIVGKAWNMFSSKAFIHQYTKFGMEEEDFLDSFALLEQVVASYGSLGP	not soluble
MVLRKLSTYRQKRDFEKTPEPSGEAAVASSKQRRFVIQKHDASRLHYDFRLEFDGVFKSWAVTKGPSLDPHDKRLAVEVEDHPLDYGDFEGTIPEGQYGGGTVMLWDRGTWEADDPERGFKKGDLKFTLHGEKLHGSWVLVRMRNDRDGGKRTNWLLIKHRDEYAREGEDILAEDKSVASGRAMAQILEHHHHHH	soluble
MKLSCVIVSHNMKNYIGRCIDSVRTALADIRSLVGEAEIIVVDRGSTDGTANAARTAYADVTIVDVPFDAGWATAANKGACAATGETLLFVSPEVELLSGGLPRLLEHLETNPACAIAGGAVVSTSGALLHGPARFPGLLGKLAALTGLGSRFPRTMLDWTRYGGRNLDLPLEVDSVSFDYAVVKAAAFCKLGRFDARFHTAFADTDLCRRASRTMLPRPTVAFVPQARARAQDNFVLRDEVQAFDLHGTAVVRGRVRCEMLYVWKNYCILTSLANTTLELVGQACRYAMGLLPVIGCDKTARHSAAVLKETAQAALDTQLGSQYPTTPWLEHHHHHH	not soluble
MGSDKIHHHHHHMGNVIVVTSGKGGVGKTTITANLGCALAKLGEKVCLIDADIGLKNLDIVLGLENRIVYTMIDVVNGKVSPQEALVKHKMLKNLYLLPASQIATKEMISPNDMKAIVKELIPHFDYIIIDSPAGIERGFRNAVAPAERVLVVTTPELPAISDADRVIGLLENFGFSDEKINVIINRFKPHMVKKGEMLTTDDIKHTLSLEIIAVIPDSEDIIVASNTGIPVSLNGNSRISKNFENLARRIRGEGVPLENDFVTVSKGLIDTLKDFFSKLKRG	not soluble
